Source: the supplement of paper PMC11246515
± gives the standard deviation of the averaged measurements.

Test: total protein half-life in vivo (active degradation + dilution); higher = more stable protein
[1] = E. coli NCM3722 delta-clpP delta-lon delta-hslV, growth: N-lim chemostat, doubling time 6 h
[2] = E. coli NCM3722 delta-clpP, growth: N-lim chemostat, doubling time 6 h
[3] = E. coli NCM3722 delta-hslV, growth: N-lim chemostat, doubling time 6 h
[4] = E. coli NCM3722 delta-lon, growth: N-lim chemostat, doubling time 6 h
[5] = E. coli NCM3722 delta-smpB, growth: N-lim chemostat, doubling time 6 h
[6] = wild type E. coli NCM3722, growth: C-lim chemostat, doubling time 3 h
[7] = wild type E. coli NCM3722, growth: C-lim chemostat, doubling time 6 h
[8] = wild type E. coli NCM3722, growth: C-lim chemostat, doubling time 12 h
[9] = wild type E. coli NCM3722, growth: N-lim chemostat, doubling time 6 h
[10] = wild type E. coli NCM3722, growth: N-lim chemostat, doubling time 12 h
[11] = wild type E. coli NCM3722, growth: P-lim chemostat, doubling time 6 h
[12] = wild type E. coli NCM3722, growth: P-lim chemostat, doubling time 12 h

Row | Sequence | total protein half-life in vivo [1] | total protein half-life in vivo [2] | total protein half-life in vivo [3] | total protein half-life in vivo [4] | total protein half-life in vivo [5] | total protein half-life in vivo [6] | total protein half-life in vivo [7] | total protein half-life in vivo [8] | total protein half-life in vivo [9] | total protein half-life in vivo [10] | total protein half-life in vivo [11] | total protein half-life in vivo [12]
1 | MKRIAFVFSTAPHGTAAGREGLDALLATSALTDDLAVFFIADGVFQLLPGQKPDAVLARDYIATFKLLGLYDIEQCWVCAASLRERGLDPQTPFVVEATPLEADALRRELANYDVILRF | 5 ± 0.57 h | 4.73 h | 4.7 ± 0.82 h | 5.18 ± 0.19 h | 4.61 ± 0.23 h | > 4 h | 6 ± 0.18 h | 11.2 ± 0.57 h | 4.83 ± 0.091 h | 7.67 ± 0.38 h | 5.89 ± 1.2 h | 13.9 ± 2.3 h
2 | MKRINALTIAGTDPSGGAGIQADLKTFSALGAYGCSVITALVAQNTRGVQSVYRIEPDFVAAQLDSVFSDVRIDTTKIGMLAETDIVEAVAERLQRYQIQNVVLDTVMLAKSGDPLLSPSAVATLRSRLLPQVSLITPNLPEAAALLDAPHARTEQEMLEQGRSLLAMGCGAVLMKGGHLDDEQSPDWLFTREGEQRFTAPRIMTKNTHGTGCTLSAALAALRPRHTNWADTVQEAKSWLSSALAQADTLEVGHGIGPVHHFHAWW | 5.24 ± 0.81 h | 5.47 ± 0.26 h | 4.31 ± 0.15 h | 4.49 ± 0.18 h | 4.23 ± 0.093 h | 3.06 ± 0.055 h | 5.96 ± 0.11 h | 9.68 ± 4.2 h | 4.49 ± 0.61 h | 7.38 ± 0.17 h | 5.89 ± 0.12 h | 9.53 ± 1.9 h
3 | MKRKRLFLLASLLPMFALAGNKWNTTLPGGNMQFQGVIIAETCRIEAGDKQMTVNMGQISSNRFHAVGEDSAPVPFVIHLRECSTVVSERVGVAFHGVADGKNPDVLSVGEGPGIATNIGVALFDDEGNLVPINRPPANWKRLYSGSTSLHFIAKYRATGRRVTGGIANAQAWFSLTYQ |  |  |  |  | 5.7 ± 0.54 h | 2.67 h | 6.06 h |  |  |  |  | 
4 | MKRLIMATMVTAILASSTVWAADNAPVAAQQQTQQVQQTQKTAAAAERISEQGLYAMRDVQVARLALFHGDPEKAKELTNEASALLSDDSTEWAKFAKPGKKTNLNDDQYIVINASVGISESYVATPEKEAAIKIANEKMAKGDKKGAMEELRLAGVGVMENQYLMPLKQTRNALADAQKLLDKKQYYEANLALKGAEDGIIVDSEALFVN |  |  |  |  |  |  |  |  |  |  | 4.05 h | 
5 | MKRLKNELNALVNRGVDRHLRLAVTGLSRSGKTAFITAMVNQLLNIHAGARLPLLSAVREERLLGVKRIPQRDFGIPRFTYDEGLAQLYGDPPAWPTPTRGVSEIRLALRFKSNDSLLRHFKDTSTLYLEIVDYPGEWLLDLPMLAQDYLSWSRQMTGLLNGQRGEWSAKWRMMSEGLDPLAPADENRLADIAAAWTDYLHHCKEQGLHFIQPGRFVLPGDMAGAPALQFFPWPDVDTWGESKLAQADKHTNAGMLRERFNYYCEKVVKGFYKNHFLRFDRQIVLVDCLQPLNSGPQAFNDMRLALTQLMQSFHYGQRTLFRRLFSPVIDKLLFAATKADHVTIDQHANMVSLLQQLIQDAWQNAAFEGISMDCLGLASVQATTSGIIDVNGEKIPALRGNRLSDGAPLTVYPGEVPARLPGQAFWDKQGFQFEAFRPQVMDVDKPLPHIRLDAALEFLIGDKLR | 6.51 ± 0.91 h | 6.53 ± 0.49 h | 6.01 ± 0.15 h | 5.93 ± 0.19 h | 5.925 ± 0.037 h | 2.94 ± 0.0058 h | 6.04 ± 0.74 h | 10.8 ± 3.9 h | 5.52 ± 0.18 h | 12.23 ± 0.11 h | 6.1 ± 0.29 h | 12.2 ± 0.47 h
